Key:
proteinase K [1] = target: T1, proteinase K (Parengyodontium album, UniProt P06873); assay: Proteinase K digestion of synthetic Aβ in lysis buffer, western blot; format: in vitro ADME; conditions: 1 h, 37°C, western blot 6E10; for Immunoreactivity with 6E10 after PK digestion (PK sensitivity): peptide in 1X PBS diluted in 1X lysis buffer, no DMSO, smallest amount of PK 5 μg/ml (range 0-50 μg/ml); for PK sensitivity of peptides dissolved in DMSO: 1X lysis buffer, PK 0-50 μg/ml
[2] = Negative-stain electron microscopy of synthetic Aβ with and without PK digestion; format: physicochemical; conditions: for Fibrils seen by electron microscopy after PK digestion: PK-treated peptide preparations, negative stain EM; for Fibril formation and morphology by electron microscopy: peptide in PBS, without PK, negative stain 2% uranylacetate, 80 kV
Description: To further rule out this possibility, PK-treated peptides were also examined by EM.
The excess buffered-protein solution was removed, and negatively stained with 2% uranylacetate. Grids were then washed by touching a buffer and the excess buffer blotted off immediately using a Whatman filter paper. Grids were then air-dried and kept at room temperature. Negatively stained specimens were observed by a JEOL 1200EX electron microscope (JEOL, Tokyo, Japan) with 80 kV of electron acceleration voltage.

[3] = format: physicochemical; conditions: spiked into HuPrP-Tg mouse brain homogenate, RT 12 h, 10-60% sucrose step gradient, 200,000 x g, 1 h, 4°C, western blot 6E10; for Sucrose gradient fractions holding the majority of the peptide: 12 fractions from top
proteinase K [4] = target: T1, proteinase K; assay: Proteinase K digestion of synthetic Aβ spiked into non-AD brain homogenate; conditions: spiked into non-AD brain homogenate with no detectable endogenous Aβ; P2 fraction; PK 0-50 μg/ml, 1 h, 37°C; western blot 6E10
[5] = pH 7.5

T1 sequence (P06873 106-384): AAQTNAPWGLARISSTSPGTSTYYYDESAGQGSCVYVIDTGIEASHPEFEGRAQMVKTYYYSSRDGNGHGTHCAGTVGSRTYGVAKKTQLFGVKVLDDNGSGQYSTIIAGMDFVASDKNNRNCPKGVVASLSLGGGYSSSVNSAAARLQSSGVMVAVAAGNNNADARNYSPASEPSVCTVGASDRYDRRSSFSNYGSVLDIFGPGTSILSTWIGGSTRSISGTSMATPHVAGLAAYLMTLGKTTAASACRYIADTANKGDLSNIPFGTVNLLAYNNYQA

Substance | Immunoreactivity with 6E10 after PK digestion (PK sensitivity) (proteinase K [1]) | PK sensitivity of peptides dissolved in DMSO (proteinase K [1]) | Fibrils seen by electron microscopy after PK digestion [2] | Fibril formation and morphology by electron microscopy [2] | Sucrose gradient fractions holding the majority of the peptide [3] | Large aggregates in bottom fractions 10-12 of the sucrose gradient [3] | PK resistance of spiked peptide (PK concentration resisted) (proteinase K [4]) [µg/mL] | Detergent solubility: fraction in which the peptide is detected (S2 supernatant = soluble, P2 pellet = insoluble) [5]
Aβ42: synthetic amyloid β peptide Aβ42 purchased from Sigma | No immunoreactivity | PK-sensitive | no fibrils or significant structures could be observed | numerous but short fibrils | between fractions 1 and 3 | smaller amounts | ≥ 50 | –
Aβ40: synthetic amyloid β peptide Aβ40 purchased from Sigma | No immunoreactivity | PK-sensitive | no fibrils or significant structures could be observed | relatively scarce but much longer | between fractions 1 and 3 | detected in significant amounts in fractions 10 to 12 | ≥ 50 | only in the S2 but not in the P2

From PMC4359245 (Oncotarget, 2014)
